Measurements reported in US20200199204A1 (UNITED STATES OF AMERICA AS REPRESENTED BY THE SECRETARY …, published 2020).

How the values were obtained:
Experiment in all cases: cell-based or functional assay
[1] = biological target: HIV-1 Env of CAP256.PI (HIV-1)
[2] = biological target: HIV-1 Env of CAP256.SU (HIV-1)
[3] = biological target: HIV-1 Env of 96ZM651.02 (HIV-1)
[4] = biological target: HIV-1 Env of CAP210.E8 (HIV-1)
[5] = biological target: HIV-1 Env of CAP244.D3 (HIV-1)
[6] = biological target: HIV-1 Env of CAP45.G3 (HIV-1)
[7] = biological target: HIV-1 Env of DU156.12 (HIV-1)
[8] = biological target: HIV-1 Env of DU172.17 (HIV-1)
[9] = biological target: HIV-1 Env of DU422.01 (HIV-1)
[10] = biological target: HIV-1 Env of ZM109.4 (HIV-1)
[11] = biological target: HIV-1 Env of ZM135.10a (HIV-1)
[12] = biological target: HIV-1 Env of ZM197.7 (HIV-1)
[13] = biological target: HIV-1 Env of ZM214.15 (HIV-1)
[14] = biological target: HIV-1 Env of ZM233.6 (HIV-1)
[15] = biological target: HIV-1 Env of ZM249.1 (HIV-1)
[16] = biological target: HIV-1 Env of ZM53.12 (HIV-1)
[17] = biological target: HIV-1 Env of 0260.v5.c36 (HIV-1)
[18] = biological target: HIV-1 Env of BG505.w6m (HIV-1)
[19] = biological target: HIV-1 Env of KER2008.12 (HIV-1)
[20] = biological target: HIV-1 Env of KER2018.11 (HIV-1)
[21] = biological target: HIV-1 Env of MB201 (HIV-1)
[22] = biological target: HIV-1 Env of MB539.2B7 (HIV-1)
[23] = biological target: HIV-1 Env of Q168.a2 (HIV-1)
[24] = biological target: HIV-1 Env of Q23.17 (HIV-1)
[25] = biological target: HIV-1 Env of Q259.d2.17 (HIV-1)
[26] = biological target: HIV-1 Env of Q461.e2 (HIV-1)
[27] = biological target: HIV-1 Env of Q769.d22 (HIV-1)
[28] = biological target: HIV-1 Env of Q842.d12 (HIV-1)
[29] = biological target: HIV-1 Env of RW020.2 (HIV-1)
[30] = biological target: HIV-1 Env of UG037.8 (HIV-1)
[31] = biological target: HIV-1 Env of 6535.3 (HIV-1)
[32] = biological target: HIV-1 Env of AC10.29 (HIV-1)
[33] = biological target: HIV-1 Env of CAAN.A2 (HIV-1)
[34] = biological target: HIV-1 Env of PVO.04 (HIV-1)
[35] = biological target: HIV-1 Env of QH0692.42 (HIV-1)
[36] = biological target: HIV-1 Env of REJO.67 (HIV-1)
[37] = biological target: HIV-1 Env of RHPA.7 (HIV-1)
[38] = biological target: HIV-1 Env of SC422.8 (HIV-1)
[39] = biological target: HIV-1 Env of THRO.18 (HIV-1)
[40] = biological target: HIV-1 Env of TRJO.58 (HIV-1)
[41] = biological target: HIV-1 Env of TRO.11 (HIV-1)
[42] = biological target: HIV-1 Env of WITO.33 (HIV-1)
[43] = biological target: HIV-1 Env of 191821.E6.1 (HIV-1)
[44] = biological target: HIV-1 Env of 3016.V5.c36 (HIV-1)
[45] = biological target: HIV-1 Env of 6405.v4.c34 (HIV-1)
[46] = biological target: HIV-1 Env of C1080.c3 (HIV-1)
[47] = biological target: HIV-1 Env of CM244.ec1 (HIV-1)
[48] = biological target: HIV-1 Env of CNE3 (HIV-1)
[49] = biological target: HIV-1 Env of TH976.17 (HIV-1)
[50] = biological target: Env of SIVmac251.30 (SIV (printed as nonHIV))

B1: CAP256-VRC26.06 (antibody, V domains shown)
VH: EVQLIESGGGVVQPGRSLRLSCGASGFSFNNYGMHWVRQAPGKGLEWVAGISFAGIKKYYGTSVKGRFTISRDNSKNNFYLQMNSLRVEDTALYYCARDLRELECEEWTLYNYYDFGSRGPCVDPRGVAGSFDVWGQGTMVTVSS
VL: QSVLTQPPSVSAAPGQKVTISCSGSTSKIGQNSVSWYQQLPGTAPKLLIYENDRRPSGTPDRFSGSKSGTSATLAITGLQTGDEAEYYCETWDGSGGVFGTGTKVTVLG
neutralization IC50 [1]: 0.03 µg/mL | neutralization IC50 [2]: 0.055 µg/mL | neutralization IC50 [3]: > 50 µg/mL | neutralization IC50 [4]: 0.729 µg/mL | neutralization IC50 [5]: > 50 µg/mL | neutralization IC50 [6]: > 50 µg/mL | neutralization IC50 [7]: > 50 µg/mL | neutralization IC50 [8]: > 50 µg/mL | neutralization IC50 [9]: > 50 µg/mL | neutralization IC50 [10]: > 50 µg/mL | neutralization IC50 [11]: > 50 µg/mL | neutralization IC50 [12]: > 50 µg/mL | neutralization IC50 [13]: > 50 µg/mL | neutralization IC50 [14]: > 50 µg/mL | neutralization IC50 [15]: > 50 µg/mL | neutralization IC50 [16]: 0.222 µg/mL | neutralization IC50 [17]: > 50 µg/mL | neutralization IC50 [18]: > 50 µg/mL | neutralization IC50 [19]: > 50 µg/mL | neutralization IC50 [20]: > 50 µg/mL | neutralization IC50 [21]: > 50 µg/mL | neutralization IC50 [22]: > 50 µg/mL | neutralization IC50 [23]: > 50 µg/mL | neutralization IC50 [24]: > 50 µg/mL | neutralization IC50 [25]: > 50 µg/mL | neutralization IC50 [26]: > 50 µg/mL | neutralization IC50 [27]: > 50 µg/mL | neutralization IC50 [28]: > 50 µg/mL | neutralization IC50 [29]: > 50 µg/mL | neutralization IC50 [30]: > 50 µg/mL | neutralization IC50 [31]: > 50 µg/mL | neutralization IC50 [32]: 0.022 µg/mL | neutralization IC50 [33]: > 50 µg/mL | neutralization IC50 [34]: 0.308 µg/mL | neutralization IC50 [35]: > 50 µg/mL | neutralization IC50 [36]: > 50 µg/mL | neutralization IC50 [37]: > 50 µg/mL | neutralization IC50 [38]: 0.178 µg/mL | neutralization IC50 [39]: 4.25 µg/mL | neutralization IC50 [40]: > 50 µg/mL | neutralization IC50 [41]: > 50 µg/mL | neutralization IC50 [42]: 0.003 µg/mL | neutralization IC50 [43]: > 50 µg/mL | neutralization IC50 [44]: > 50 µg/mL | neutralization IC50 [45]: > 50 µg/mL | neutralization IC50 [46]: > 50 µg/mL | neutralization IC50 [47]: > 50 µg/mL | neutralization IC50 [48]: > 50 µg/mL | neutralization IC50 [49]: > 50 µg/mL | neutralization IC50 [50]: > 50 µg/mL

B2: CAP256-VRC26.01 (antibody, V domains shown)
VH: EVQVVESGGGVVQPGRSLRLSCTASGFTFSNFAMGWVRQAPGKGLEWVAFISSDGSNKNYGDSVKGRFTISRDNSKNTVFLQMNSLRVEDTALYYCAKDVGDYKSDEWGTEYYDISISYPIQDPRAMVGAFDLWGQGTMVTVSP
VL: QSVLTQPPSVSAAPGQKVTISCSGSSSTIGNNYVSWYRLLPGTAPKLLIYKNDNRPSGIPDRFSGSKSGTSATLGISGLQTGDEADYYCGTWDTSLSGGGVFGTGTKVTVLG
neutralization IC50 [1]: > 50 µg/mL | neutralization IC50 [2]: 0.14 µg/mL | neutralization IC50 [3]: > 50 µg/mL | neutralization IC50 [4]: 0.217 µg/mL | neutralization IC50 [5]: > 50 µg/mL | neutralization IC50 [6]: > 50 µg/mL | neutralization IC50 [7]: > 50 µg/mL | neutralization IC50 [8]: > 50 µg/mL | neutralization IC50 [9]: > 50 µg/mL | neutralization IC50 [10]: > 50 µg/mL | neutralization IC50 [11]: > 50 µg/mL | neutralization IC50 [12]: 10.4 µg/mL | neutralization IC50 [13]: > 50 µg/mL | neutralization IC50 [14]: > 50 µg/mL | neutralization IC50 [15]: > 50 µg/mL | neutralization IC50 [16]: 0.103 µg/mL | neutralization IC50 [17]: > 50 µg/mL | neutralization IC50 [18]: > 50 µg/mL | neutralization IC50 [19]: 30.9 µg/mL | neutralization IC50 [20]: 8.1 µg/mL | neutralization IC50 [21]: > 50 µg/mL | neutralization IC50 [22]: > 50 µg/mL | neutralization IC50 [23]: > 50 µg/mL | neutralization IC50 [24]: > 50 µg/mL | neutralization IC50 [25]: > 50 µg/mL | neutralization IC50 [26]: > 50 µg/mL | neutralization IC50 [27]: > 50 µg/mL | neutralization IC50 [28]: > 50 µg/mL | neutralization IC50 [29]: > 50 µg/mL | neutralization IC50 [30]: > 50 µg/mL | neutralization IC50 [31]: > 50 µg/mL | neutralization IC50 [32]: > 50 µg/mL | neutralization IC50 [33]: > 50 µg/mL | neutralization IC50 [34]: > 50 µg/mL | neutralization IC50 [35]: > 50 µg/mL | neutralization IC50 [36]: > 50 µg/mL | neutralization IC50 [37]: > 50 µg/mL | neutralization IC50 [38]: > 50 µg/mL | neutralization IC50 [39]: > 50 µg/mL | neutralization IC50 [40]: > 50 µg/mL | neutralization IC50 [41]: > 50 µg/mL | neutralization IC50 [42]: > 50 µg/mL | neutralization IC50 [43]: > 50 µg/mL | neutralization IC50 [44]: 9.63 µg/mL | neutralization IC50 [45]: > 50 µg/mL | neutralization IC50 [46]: > 50 µg/mL | neutralization IC50 [47]: 3.32 µg/mL | neutralization IC50 [48]: > 50 µg/mL | neutralization IC50 [49]: > 50 µg/mL | neutralization IC50 [50]: > 50 µg/mL
